Common to all, as to test: SPR (Biacore T100), antibody captured on Protein A/G chip, antigen as analyte, 25 C, 1:1 Langmuir fit
The target of assay [1] is T1, GPC3 (UniProt P51654 25-563, limits assumed).
T1 construct: also called glypican-3

The target in another assay is T2, hIL6R (human, UniProt P08887 20-357, limits assumed).
T2 construct: Printed as hIL6R
T2 sequence (looked up): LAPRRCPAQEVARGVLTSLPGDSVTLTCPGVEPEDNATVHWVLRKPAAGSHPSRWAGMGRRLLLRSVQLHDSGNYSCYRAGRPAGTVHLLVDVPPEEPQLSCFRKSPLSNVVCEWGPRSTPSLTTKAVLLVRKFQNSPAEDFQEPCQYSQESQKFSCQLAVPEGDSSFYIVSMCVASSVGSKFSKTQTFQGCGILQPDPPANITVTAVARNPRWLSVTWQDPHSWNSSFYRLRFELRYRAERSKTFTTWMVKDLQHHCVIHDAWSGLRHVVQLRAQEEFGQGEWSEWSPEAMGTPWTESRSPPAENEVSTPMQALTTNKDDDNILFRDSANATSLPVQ

For assay [2], the target named is T1, GPC3. The source holds these as a separate data set.

Values joined by “and” are separate entries in the source; they are usually repeats but may differ in a detail not shown here. Identical values can stand only once. Like-named read-outs stand apart in the source and are kept apart here.

In general, Kd refers to the concentration at which binding is half-saturated. Low readings indicate tighter binding, high ones weaker binding. For orientation: koff means the first-order rate constant of dissociation. By kon is commonly meant a measure of how fast the partners come together. A lower kon goes with slower complex formation.

T1 sequence (P51654 25-563 limits assumed): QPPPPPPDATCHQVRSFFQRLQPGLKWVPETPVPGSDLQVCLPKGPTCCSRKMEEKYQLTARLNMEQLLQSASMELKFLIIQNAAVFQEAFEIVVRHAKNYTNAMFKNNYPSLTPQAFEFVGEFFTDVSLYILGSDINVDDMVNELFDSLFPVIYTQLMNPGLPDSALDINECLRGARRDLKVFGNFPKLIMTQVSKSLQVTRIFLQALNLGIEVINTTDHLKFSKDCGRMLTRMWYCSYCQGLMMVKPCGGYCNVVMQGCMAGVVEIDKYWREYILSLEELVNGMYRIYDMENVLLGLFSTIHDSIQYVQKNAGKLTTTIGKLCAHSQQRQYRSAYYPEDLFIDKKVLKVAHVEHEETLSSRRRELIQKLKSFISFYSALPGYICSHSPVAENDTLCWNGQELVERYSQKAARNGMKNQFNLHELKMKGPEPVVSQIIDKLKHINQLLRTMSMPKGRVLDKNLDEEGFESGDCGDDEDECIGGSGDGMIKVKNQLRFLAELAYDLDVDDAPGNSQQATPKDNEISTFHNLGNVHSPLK

B1: anti-GPC3 antibody with H chain constant region TH13 (K147E, Q175E) and L chain constant region TL16 (T180K, S131K, Q160K) (antibody, human IgG1, kappa)
heavy: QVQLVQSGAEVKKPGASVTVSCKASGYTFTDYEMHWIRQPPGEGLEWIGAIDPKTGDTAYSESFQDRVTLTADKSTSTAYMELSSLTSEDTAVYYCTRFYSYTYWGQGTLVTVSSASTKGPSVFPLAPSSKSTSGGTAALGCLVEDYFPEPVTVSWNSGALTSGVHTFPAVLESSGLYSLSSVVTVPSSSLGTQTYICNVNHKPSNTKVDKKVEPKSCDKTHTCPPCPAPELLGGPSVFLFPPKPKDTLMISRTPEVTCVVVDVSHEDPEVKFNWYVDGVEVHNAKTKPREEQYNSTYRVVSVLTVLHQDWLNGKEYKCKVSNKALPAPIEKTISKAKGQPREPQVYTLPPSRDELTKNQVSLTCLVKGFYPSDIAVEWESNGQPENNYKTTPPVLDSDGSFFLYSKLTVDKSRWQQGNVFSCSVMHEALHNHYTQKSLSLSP
light: DIVMTQSPLSLPVTPGEPASISCQASESLVHSNRNTYLHWYLQKPGQSPQLLIYKVSNRFSGVPDRFSGSGSGTDFTLKISRVEAEDVGVYYCSQNTHVPPTFGQGTKVEIERTVAAPSVFIFPPSDEQLKSGTAKVVCLLNNFYPREAKVQWKVDNALQSGNSKESVTEQDSKDSTYSLSSTLKLSKADYEKHKVYACEVTHQGLSSPVTKSFNRGEC
notes: IgG1/kappa; also called TH13/TL16
B1: in the assay with GPC3 [1], the affinity, expressed as Kd, was 1.5 nM; the koff amounted to 0.0004 s⁻¹; the kon was 270000 M⁻¹ s⁻¹.

B2: 4ch_004 (anti-IL6R MH0-TH2k/ML0-TL17 and anti-GPC3 GpH7-TH13h/GpL16-TL16; KiH + CH1/CL_1) (bispecific antibody, human IgG1, kappa)
heavy 1: not shown
light 1: not shown
heavy 2: not shown
light 2: DIVMTQSPLSLPVTPGEPASISCQASESLVHSNRNTYLHWYLQKPGQSPQLLIYKVSNRFSGVPDRFSGSGSGTDFTLKISRVEAEDVGVYYCSQNTHVPPTFGQGTKVEIERTVAAPSVFIFPPSDEQLKSGTAKVVCLLNNFYPREAKVQWKVDNALQSGNSKESVTEQDSKDSTYSLSSTLKLSKADYEKHKVYACEVTHQGLSSPVTKSFNRGEC
notes: IgG1/kappa bispecific with knob (k) and hole (h) H chains
With B2, in the assay with hIL6R, the Kd came to 2.8 nM, the koff came out at 0.00047 s⁻¹ and the kon is 170000 M⁻¹ s⁻¹. Further, in the assay with GPC3 [2], binding was characterised by a dissociation constant (Kd) of 1.4 nM, the koff amounted to 0.00038 s⁻¹ and the kon is 270000 M⁻¹ s⁻¹.

B3: 4ch_001 (anti-IL6R MH0-G1d/ML0-k0 and anti-GPC3 GpH7-G1d/GpL16-k0, no CH1/CL or KiH modification) (bispecific antibody, human IgG1, kappa)
heavy 1: not shown
light 1: not shown
heavy 2: not shown
light 2: DIVMTQSPLSLPVTPGEPASISCQASESLVHSNRNTYLHWYLQKPGQSPQLLIYKVSNRFSGVPDRFSGSGSGTDFTLKISRVEAEDVGVYYCSQNTHVPPTFGQGTKVEIERTVAAPSVFIFPPSDEQLKSGTASVVCLLNNFYPREAKVQWKVDNALQSGNSQESVTEQDSKDSTYSLSSTLTLSKADYEKHKVYACEVTHQGLSSPVTKSFNRGEC
notes: Four chains co-expressed without pairing control
For B3, in the assay with hIL6R, the Kd was 2.6 nM and 2.8 nM; the off-rate (koff) was 0.00041 s⁻¹; the association rate constant (kon) is 150000 M⁻¹ s⁻¹. In the assay with GPC3 [2], this molecule had a dissociation constant (Kd) of 1.3 nM, a koff of 0.00036 s⁻¹ and a kon of 270000 M⁻¹ s⁻¹.

B4: 4ch_006 (anti-IL6R MH0-TH2k/ML0-TL17 and anti-GPC3 GpH7-TH15h/GpL16-TL19; KiH + CH1/CL_2) (bispecific antibody, human IgG1, kappa)
heavy 1: not shown
light 1: not shown
heavy 2: not shown
light 2: DIVMTQSPLSLPVTPGEPASISCQASESLVHSNRNTYLHWYLQKPGQSPQLLIYKVSNRFSGVPDRFSGSGSGTDFTLKISRVEAEDVGVYYCSQNTHVPPTFGQGTKVEIERTVAAPSVFIFPPSDKQLKSGTAKVVCLLNNFYPREAKVQWKVDNALQSGNSKESVTEQDSKDSTYSLSSTLKLSKADYEKHKVYACEVTHQGLSSPVTKSFNRGEC
notes: as for B2
As to B4, in the assay with hIL6R, the Kd stood at 2.2 nM, the koff is 0.00043 s⁻¹ and the association rate constant (kon) stood at 200000 M⁻¹ s⁻¹. Besides, in the assay with GPC3 [2], the affinity, expressed as Kd, was 1.2 nM; the koff turned out to be 0.00042 s⁻¹; the on-rate (kon) is 340000 M⁻¹ s⁻¹.

B5: anti-GPC3 antibody with H chain constant region TH15 (K147E, Q175E, K213E) and L chain constant region TL19 (T180K, S131K, Q160K, E123K) (antibody, human IgG1, kappa)
heavy: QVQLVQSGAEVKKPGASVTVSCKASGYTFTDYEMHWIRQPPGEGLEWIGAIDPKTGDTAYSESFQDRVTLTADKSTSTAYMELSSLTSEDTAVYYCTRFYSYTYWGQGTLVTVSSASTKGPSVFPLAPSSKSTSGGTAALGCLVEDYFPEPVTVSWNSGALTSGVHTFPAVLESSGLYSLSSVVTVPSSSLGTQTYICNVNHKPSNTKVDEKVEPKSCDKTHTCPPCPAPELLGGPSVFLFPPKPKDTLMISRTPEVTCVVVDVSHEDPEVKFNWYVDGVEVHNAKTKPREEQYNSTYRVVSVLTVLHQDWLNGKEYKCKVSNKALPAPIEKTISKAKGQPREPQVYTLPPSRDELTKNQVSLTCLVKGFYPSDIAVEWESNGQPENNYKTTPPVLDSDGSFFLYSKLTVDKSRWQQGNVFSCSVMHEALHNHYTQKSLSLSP
light: DIVMTQSPLSLPVTPGEPASISCQASESLVHSNRNTYLHWYLQKPGQSPQLLIYKVSNRFSGVPDRFSGSGSGTDFTLKISRVEAEDVGVYYCSQNTHVPPTFGQGTKVEIERTVAAPSVFIFPPSDKQLKSGTAKVVCLLNNFYPREAKVQWKVDNALQSGNSKESVTEQDSKDSTYSLSSTLKLSKADYEKHKVYACEVTHQGLSSPVTKSFNRGEC
notes: IgG1/kappa; also called TH15/TL19
In the assay with GPC3 [1], B5 had a Kd of 0.99 nM, a koff of 0.00038 s⁻¹ and a kon of 390000 M⁻¹ s⁻¹.

B6: anti-GPC3 antibody with H chain constant region G1d and L chain constant region k0 (GpH7-G1d / GpL16-k0) (antibody, human IgG1, kappa)
heavy: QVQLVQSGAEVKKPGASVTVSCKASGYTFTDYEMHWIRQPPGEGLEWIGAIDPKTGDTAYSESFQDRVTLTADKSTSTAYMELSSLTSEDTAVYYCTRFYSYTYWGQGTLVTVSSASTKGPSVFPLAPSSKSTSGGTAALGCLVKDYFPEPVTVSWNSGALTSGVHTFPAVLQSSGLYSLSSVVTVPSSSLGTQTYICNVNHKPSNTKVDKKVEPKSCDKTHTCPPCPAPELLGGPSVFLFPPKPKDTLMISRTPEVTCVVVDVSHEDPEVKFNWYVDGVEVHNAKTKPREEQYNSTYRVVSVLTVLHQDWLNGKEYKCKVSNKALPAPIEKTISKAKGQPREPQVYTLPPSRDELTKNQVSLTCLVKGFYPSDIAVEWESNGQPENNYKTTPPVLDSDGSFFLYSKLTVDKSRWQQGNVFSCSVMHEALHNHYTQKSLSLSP
light: DIVMTQSPLSLPVTPGEPASISCQASESLVHSNRNTYLHWYLQKPGQSPQLLIYKVSNRFSGVPDRFSGSGSGTDFTLKISRVEAEDVGVYYCSQNTHVPPTFGQGTKVEIERTVAAPSVFIFPPSDEQLKSGTASVVCLLNNFYPREAKVQWKVDNALQSGNSQESVTEQDSKDSTYSLSSTLTLSKADYEKHKVYACEVTHQGLSSPVTKSFNRGEC
notes: IgG1/kappa; also called G1d/k0; native G1d/k0
Regarding B6, in the assay with GPC3 [1], the Kd came out at 1.3 nM, the koff was determined as 0.00036 s⁻¹ and the kon amounted to 270000 M⁻¹ s⁻¹.

B7: anti-GPC3 antibody with H chain constant region TH2 (Q175K) and L chain constant region TL17 (T180E, S131E, Q160E) (antibody, human IgG1, kappa)
heavy: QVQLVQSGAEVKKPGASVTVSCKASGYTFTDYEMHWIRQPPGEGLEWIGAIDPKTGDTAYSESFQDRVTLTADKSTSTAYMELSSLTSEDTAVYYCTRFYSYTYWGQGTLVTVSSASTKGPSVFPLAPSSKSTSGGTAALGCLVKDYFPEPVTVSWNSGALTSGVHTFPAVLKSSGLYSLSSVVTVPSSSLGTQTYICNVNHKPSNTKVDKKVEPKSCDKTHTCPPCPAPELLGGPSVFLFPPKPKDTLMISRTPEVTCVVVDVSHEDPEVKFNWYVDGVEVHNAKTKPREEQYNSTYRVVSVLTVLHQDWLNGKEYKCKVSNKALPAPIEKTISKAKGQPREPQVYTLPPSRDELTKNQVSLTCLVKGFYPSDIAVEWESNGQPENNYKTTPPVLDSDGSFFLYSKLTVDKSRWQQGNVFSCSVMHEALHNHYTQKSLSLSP
light: DIVMTQSPLSLPVTPGEPASISCQASESLVHSNRNTYLHWYLQKPGQSPQLLIYKVSNRFSGVPDRFSGSGSGTDFTLKISRVEAEDVGVYYCSQNTHVPPTFGQGTKVEIERTVAAPSVFIFPPSDEQLKSGTAEVVCLLNNFYPREAKVQWKVDNALQSGNSEESVTEQDSKDSTYSLSSTLELSKADYEKHKVYACEVTHQGLSSPVTKSFNRGEC
notes: IgG1/kappa; also called TH2/TL17
In the assay with GPC3 [1], B7 yielded a Kd of 1.4 nM, a koff of 0.00039 s⁻¹ and a kon of 280000 M⁻¹ s⁻¹.

B8: 4ch_010 (anti-IL6R MH0-TH15k/ML0-TL19 and anti-GPC3 GpH7-TH2h/GpL16-TL17; KiH + CH1/CL_2) (bispecific antibody, human IgG1, kappa)
heavy 1: not shown
light 1: not shown
heavy 2: not shown
light 2: DIVMTQSPLSLPVTPGEPASISCQASESLVHSNRNTYLHWYLQKPGQSPQLLIYKVSNRFSGVPDRFSGSGSGTDFTLKISRVEAEDVGVYYCSQNTHVPPTFGQGTKVEIERTVAAPSVFIFPPSDEQLKSGTAEVVCLLNNFYPREAKVQWKVDNALQSGNSEESVTEQDSKDSTYSLSSTLELSKADYEKHKVYACEVTHQGLSSPVTKSFNRGEC
notes: as for B2
As to B8, in the assay with hIL6R, the affinity, expressed as Kd, was 2.4 nM; the koff turned out to be 0.00059 s⁻¹; the on-rate constant (kon) was found to be 240000 M⁻¹ s⁻¹. Also, in the assay with GPC3 [2], the Kd was 1.4 nM, the koff came to 0.00041 s⁻¹ and the kon stood at 290000 M⁻¹ s⁻¹.

B9: 4ch_008 (anti-IL6R MH0-TH13k/ML0-TL16 and anti-GPC3 GpH7-TH2h/GpL16-TL17; KiH + CH1/CL_1) (bispecific antibody, human IgG1, kappa)
heavy 1: not shown
light 1: not shown
heavy 2: not shown
light 2: DIVMTQSPLSLPVTPGEPASISCQASESLVHSNRNTYLHWYLQKPGQSPQLLIYKVSNRFSGVPDRFSGSGSGTDFTLKISRVEAEDVGVYYCSQNTHVPPTFGQGTKVEIERTVAAPSVFIFPPSDEQLKSGTAEVVCLLNNFYPREAKVQWKVDNALQSGNSEESVTEQDSKDSTYSLSSTLELSKADYEKHKVYACEVTHQGLSSPVTKSFNRGEC
notes: as for B2
In the assay with hIL6R, B9 gave a Kd of 2.8 nM, a koff of 0.00046 s⁻¹ and a kon of 160000 M⁻¹ s⁻¹. In the assay with GPC3 [2], this molecule displayed a Kd of 1.5 nM, a koff of 0.00039 s⁻¹ and a kon of 260000 M⁻¹ s⁻¹.

The values above are taken from patent publication US20200087380A1 (Chugai, published 2020).
